Source: patent US6548290 (Harvard, dated 2003)

T1: Xenopus Geminin-H, translated in vitro
T1 sequence: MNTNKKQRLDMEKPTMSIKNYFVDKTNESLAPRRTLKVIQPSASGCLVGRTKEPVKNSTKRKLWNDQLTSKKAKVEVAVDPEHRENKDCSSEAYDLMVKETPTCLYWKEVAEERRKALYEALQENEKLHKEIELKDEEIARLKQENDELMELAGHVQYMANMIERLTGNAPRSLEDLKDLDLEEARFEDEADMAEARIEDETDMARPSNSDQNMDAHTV

T2: geminin^DEL (geminin H with the nine amino acids of the destruction box RRTLKVIQP, 33-41, removed), translated in vitro
T2 sequence: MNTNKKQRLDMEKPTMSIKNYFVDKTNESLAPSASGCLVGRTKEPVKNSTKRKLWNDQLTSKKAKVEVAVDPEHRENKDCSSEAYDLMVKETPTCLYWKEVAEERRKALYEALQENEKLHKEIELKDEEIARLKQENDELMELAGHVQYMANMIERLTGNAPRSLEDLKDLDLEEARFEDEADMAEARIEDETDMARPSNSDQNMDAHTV

T3: Xorc2 (Xenopus, UniProt Q91628 1-558)
T3 sequence (looked up): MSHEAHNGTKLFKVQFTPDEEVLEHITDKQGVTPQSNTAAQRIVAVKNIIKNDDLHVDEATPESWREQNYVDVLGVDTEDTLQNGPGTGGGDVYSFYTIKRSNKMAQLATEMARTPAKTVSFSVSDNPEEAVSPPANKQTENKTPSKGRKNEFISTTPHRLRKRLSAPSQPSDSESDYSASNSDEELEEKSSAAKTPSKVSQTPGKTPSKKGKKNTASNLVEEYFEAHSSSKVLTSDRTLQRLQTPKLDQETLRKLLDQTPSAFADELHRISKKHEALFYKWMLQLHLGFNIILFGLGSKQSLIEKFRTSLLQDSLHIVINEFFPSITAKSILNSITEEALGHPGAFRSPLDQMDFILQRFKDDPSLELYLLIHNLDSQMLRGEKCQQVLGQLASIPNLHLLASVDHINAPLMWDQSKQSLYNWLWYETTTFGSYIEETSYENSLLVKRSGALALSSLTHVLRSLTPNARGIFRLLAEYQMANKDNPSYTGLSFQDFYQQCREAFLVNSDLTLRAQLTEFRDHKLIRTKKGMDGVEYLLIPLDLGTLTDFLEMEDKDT

T4: Xmcm3 (Xenopus, UniProt P49739 1-807)
T4 sequence (looked up): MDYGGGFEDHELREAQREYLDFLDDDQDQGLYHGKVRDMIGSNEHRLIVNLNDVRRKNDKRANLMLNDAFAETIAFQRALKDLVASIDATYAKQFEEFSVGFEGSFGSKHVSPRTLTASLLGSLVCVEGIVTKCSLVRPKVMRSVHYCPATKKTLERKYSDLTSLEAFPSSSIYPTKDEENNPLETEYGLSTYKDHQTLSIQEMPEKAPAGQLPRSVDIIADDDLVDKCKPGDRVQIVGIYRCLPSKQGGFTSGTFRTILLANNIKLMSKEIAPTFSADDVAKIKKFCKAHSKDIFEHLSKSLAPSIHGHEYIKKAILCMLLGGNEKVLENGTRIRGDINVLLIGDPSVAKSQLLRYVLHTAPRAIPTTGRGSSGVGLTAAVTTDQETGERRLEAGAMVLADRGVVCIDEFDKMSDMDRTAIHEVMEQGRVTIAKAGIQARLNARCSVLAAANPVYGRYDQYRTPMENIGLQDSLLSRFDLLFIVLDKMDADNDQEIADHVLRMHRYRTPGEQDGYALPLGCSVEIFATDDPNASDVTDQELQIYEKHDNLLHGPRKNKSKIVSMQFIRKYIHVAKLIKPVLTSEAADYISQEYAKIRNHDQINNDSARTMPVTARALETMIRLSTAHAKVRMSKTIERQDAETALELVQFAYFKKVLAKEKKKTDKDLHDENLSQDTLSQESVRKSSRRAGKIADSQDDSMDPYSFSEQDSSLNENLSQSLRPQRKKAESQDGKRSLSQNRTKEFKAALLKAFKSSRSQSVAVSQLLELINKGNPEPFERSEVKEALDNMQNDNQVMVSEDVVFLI

B1: geminin (Xenopus; as used in the co-immunoprecipitation experiments) (other)
chain: T1 sequence

Columns and labels:
[1] = system: T1, Xenopus Geminin-H, translated in vitro
[2] = system: T2, geminin^DEL (geminin H with the nine amino acids of the destruction box RRTLKVIQP, 33-41, removed), translated in vitro
[3] = molecular target: T3, Xorc2; experiment: co-immunoprecipitation (preliminary experiments)
[4] = molecular target: T4, Xmcm3; experiment: co-immunoprecipitation (preliminary experiments)

Molecule | ubiquitin conjugates (ladder on autoradiogram) in a reconstituted ubiquitination reaction [1] | ubiquitin conjugates (ladder on autoradiogram) in a reconstituted ubiquitination reaction [2] | binding result [3] | binding result [4]
mitotic anaphase promoting complex (APC) of Xenopus mitotic egg extract | a characteristic ladder of ubiquitin conjugates appeared above the starting material | The ladder did not appear if the destruction box mutant geminin^DEL was used as the substrate |  | 
interphase APC (immunoprecipitated from interphase Xenopus egg extract) | The ladder did not appear ... if the APC was immunoprecipitated from interphase extracts (lane 7) |  |  | 
B1 |  |  | no binding | no binding
